Measured values taken from publication PMC10331576 (2023).

Target: COVID-2019-Spike-328-585 (RBD) (SARS-CoV-2, UniProt P0DTC2 328-585)
Assay: BLI

B1: DC-SIGN.Fc (Fc fusion)
chain: QVSKVPSSISQEQSRQDAIYQNLTQLKAAVGELSEKSKLQEIYQELTQLKAAVGELPEKSKLQEIYQELTRLKAAVGELPEKSKLQEIYQELTWLKAAVGELPEKSKMQEIYQELTRLKAAVGELPEKSKQQEIYQELTRLKAAVGELPEKSKQQEIYQELTRLKAAVGELPEKSKQQEIYQELTQLKAAVERLCHPCPWEWTFFQGNCYFMSNSQRNWHDSITACKEVGAQLVVIKSAEEQNFLQLQSSRSNRFTWMGLSDLNQEGTWQWVDGSPLLPSFKQYWNRGEPNNVGEEDCAEFSGNGWNDDKCNLAKFWICKKSAASCSRDEEQFLSPAPATPNPPPA
  koff: 0.000614 s⁻¹
